According to publication PMC6318328, “Structural insights into trans-histone regulation of H3K4 methylation by unique histone H4 binding of MLL3/4” (Nature Communications, 2019):

Molecular target: MLL3 ePHD6 E1097A (human) (UniProt Q8NEZ4)
Assay: ITC; peptide (1–2 mM) in the syringe injected into protein (50–100 μM) in the cell; 25 °C; 20 mM Tris pH 7.5, 150 mM NaCl; single-site binding model

fold reduction of binding against the wild type: 2 fold
Substance: histone H4 peptide H4_(11–21) (from UniProt P62805 12-22)
